US20120165265A1, “Calcium Signaling Modulators Involving STIM and ORAI Proteins” (priority 2009, published 2012)

How the values were obtained:
Orai1 [1] = biological target: T1, Orai1 (Homo sapiens, UniProt Q96D31); experiment: Whole-cell patch clamp recording of ICRAC in transfected HEK 293 cells; assay type: cell-based; design: expressed in transfected cells; host or cells: HEK 293
Description: Electrophysiology. HEK 293 cells were transfected 8-24 h prior to electrophysiology experiments with STIM1- and Orai1-derived constructs in a 1:1 mass ratio using Lipofectamine 2000. […] ICRAC in cells cultured without LaCl3 was similar to that in cells cultured with LaCl3, but most cells without LaCl3 died soon after break-in.
Currents were recorded using standard whole-cell patch clamp techniques (Prakriya and Lewis, 2001). Pipettes of resistance 2-5 MΩ were filled with an internal solution containing (in mM) 150 Cs aspartate, 8 MgCl2, 10 EGTA, and 10 HEPES (pH 7.2 with CsOH). Currents were sampled at 5 kHz and filtered at 2 kHz, and all voltages were corrected for the junction potential of the pipette solution relative to Ringer's in the bath (−13 mV).
Patch-clamp Experiments. Pipette-membrane seals were formed in 2 mM Ca^2+ Ringer's solution. After break-in to the whole-cell configuration, voltage stimuli consisting of a 100-ms step to −100 mV followed by a 100-ms ramp from −100 to +100 mV were delivered every 5 s from the holding potential of +30 mV. After the currents reached a steady level (˜300 s for wild-type STIM1), the external solution was changed via a multibarrel local perfusion pipette to a high-Ca^2+ Ringer's containing (in mM) 130 NaCl, 4.5 KCl, 20 CaCl2, 1 MgCl2, 10 D-glucose, and 5 HEPES (pH 7.4 with NaOH). All data were leak-corrected using the current elicited in 20 mM Ca^2+ Ringer's+10 μM LaCl3 at the end of the each experiment. LaCl3 and 2-APB were added directly to parent solutions on the day of the experiment from 10 mM and 100 mM stocks in H2O and DMSO, respectively.
As a definitive test for CRAC channel activation, we conducted whole-cell patch clamp recordings from HEK 293 cells transiently transfected with myc-Orai1 and either YFP-STIM1 or YFP-CAD. In cells expressing full length YFP-STIM1, ICRAC appeared over several minutes following break-in, consistent with the typical slow activation seen in response to passive store depletion (FIG. 2D). […] In contrast, inward current was present from the moment of break-in in cells expressing YFP-CAD (FIG. 2E). This current was identified as ICRAC based on its dependence on extracellular Ca^2+, inward rectification, sequential enhancement and inhibition by 2-APB, and inhibition by La^3+ (FIG. 2E and FIG. 10 C, D). ICRAC was not observed at break-in in HEK 293 cells transfected with YFP or YFP-CAD in the absence of Orai1 (FIG. 2F), consistent with the low level of endogenous STIM1 and Orai1 in these cells. […] Inactivation was restored by addition of STIM1 residues carboxy-terminal to CAD.

CRAC channels = biological target: T2, CRAC channels (Homo sapiens, UniProt Q96D31); experiment: [Ca2+]i imaging in HEK 293 cells expressing STIM1 fragment and Orai1; assay type: cell-based; details: for effect on CAD-induced sustained elevation of [Ca2+]i: HEK 293 cells expressing Orai1 and CAD
T2 construct: expressed in transfected cells; host or cells: HEK 293
Description: Ca^2+ Imaging. For FIG. 2, cells were loaded at 37° C. in DMEM with 1 μM fura-2/AM for 30 min. Ratiometric Ca2+ imaging was performed at 340 and 380 nm in 2 mM Ca2+ Ringer's solution with a Nikon Eclipse 2000-U inverted microscope equipped with a fluorescent arc lamp, excitation filter wheel, and a Hamamatsu Orca CCD camera. Images were collected using Openlab (Improvision) and analyzed using Igor Pro.
To determine if CAD activates store operated Ca^2+ influx in cells, we measured [Ca^2+]i in HEK 293 cells expressing CAD and Orai1.

CAD [2] = biological target: T3, CAD (Homo sapiens, UniProt Q13586); experiment: Yeast split ubiquitin assay, Orai1 fragments with CAD; assay type: binding; details: NubG-Orai1 fragment with CAD-Cub-LV in yeast
T3 construct: For STIM1 342-448 (CAD); expressed in transfected cells; host or cells: HEK 293T
Description: Split-Ubiquitin Yeast Two Hybrid Assay. Screening was performed according to the manufacturer's instructions (Dualsystems Biotech). Transformed yeast were selected on media lacking Trp and Leu (-TL). Interaction was observed by cell growth on plates lacking Trp, Leu, and His (TLH) in the presence of 3-aminotriazole (3-AT). Protein interactions were also assessed by measuring lacZ activity using the chromogenic substrate X-gal (5-bromo-4-chloro-3-indolyl-β-galactopyranoside).
Split-Ubiquitin Yeast Two Hybrid Assay. To generate fusion proteins with the N-terminal half of ubiquitin (Nub), full-length or fragments of Orai1 were amplified by PCR and cloned into the pDL2-Nubx vector (Dualsystems Biotech). The Nub sequence in the pDL2-Nubx plasmid contains a point mutation (NubG) that abolishes the spontaneous association of Nub to the C-terminal half of ubiquitin (Cub). The CAD was subcloned into the pAMBV4 vector, which contains Cub fused to a chimeric transcription factor consisting of the DNA binding domain from LexA and the VP16 transactivation domain.
(§1) STIM1-CAD BINDS TO THE N- AND C-TERMINI OF ORAI1. To identify regions of Orai1 important for activation by CAD, we characterized the binding of CAD to Orai1 using two approaches. First we expressed fusions of NubG with the N-terminus, the II-III cytoplasmic loop and the C-terminus of Orai1 in yeast together with different CAD-Cub-LV constructs. […] Based on the level of b-gal activity, CAD appears to interact with the Orai1 C-terminus with a higher affinity than with the N-terminus. We next expressed fusions of YFP with the N-terminus, the II-III loop and the C-terminus of Orai1 in HEK 293T cells together with Flag-myc-CAD.
(§2) To explore the interaction between the N-terminus of Orai1 and CAD in more detail we mapped the subregion within the N-terminus of Orai1 that is responsible for CAD binding, using both the split ubiquitin and HEK 293T co-immunoprecipitation assays.

CAD [3] = biological target: T3, CAD; experiment: Co-immunoprecipitation of Orai1 fragments with CAD in HEK 293T cells; assay type: binding; details: YFP-tagged Orai1 fragment with Flag-myc-CAD in HEK 293T cells
Description: (§3) Immunoprecipitation and Immunoblot Analysis. Transfected HEK 293T cells (12-24 h) were washed with PBS and lysed in 50 mM Tris-HCl pH 7.5, 150 mM NaCl, 1% Triton X-100, and protease inhibitors. Lysates were spun at 12,000 rpm for 10 min, and the supernatant was incubated with anti-Flag M2 agarose beads (Sigma), or anti-myc or -HA antibody followed by IgG agarose beads (Pierce). Lysates and immunoprecipitates were subjected to SDS-PAGE, probed with HRP-conjugated secondary antibody and detected by enhanced chemiluminescence (Pierce).
as §1, §2

Orai1 [4] = biological target: T1, Orai1; experiment: Co-immunoprecipitation with Orai1 in HEK 293T cells; assay type: binding; design: expressed in transfected cells; host or cells: HEK 293; details: 150 mM salt, 1% Triton X-100
Description: as §3
CAD Associates with Orai1 in vivo and in vitro. Because cytosolic CAD is a potent activator of Orai1 channels and is not associated with the ER, we hypothesized that CAD binds to Orai1. To test this idea, we first expressed YFP-CAD with or without myc-Orai1 in HEK 293 cells and examined its intracellular localization. […] To provide additional evidence that CAD and Orai1 are part of the same protein complex we expressed Flag-tagged CAD and GFP-tagged Orai1 in HEK 293T cells and immunoprecipitated CAD with anti-Flag antibodies. GFP-myc-Orai1 was detected in the immunoprecipitates from cells co-expressing CAD and Orai1 but not from cells expressing CAD or Orai1 alone (FIG. 3B).
Thus, CAD and Orai1 form a protein complex in mammalian cells.

T2 sequence (Q96D31 whole entry, the tested form may be a part): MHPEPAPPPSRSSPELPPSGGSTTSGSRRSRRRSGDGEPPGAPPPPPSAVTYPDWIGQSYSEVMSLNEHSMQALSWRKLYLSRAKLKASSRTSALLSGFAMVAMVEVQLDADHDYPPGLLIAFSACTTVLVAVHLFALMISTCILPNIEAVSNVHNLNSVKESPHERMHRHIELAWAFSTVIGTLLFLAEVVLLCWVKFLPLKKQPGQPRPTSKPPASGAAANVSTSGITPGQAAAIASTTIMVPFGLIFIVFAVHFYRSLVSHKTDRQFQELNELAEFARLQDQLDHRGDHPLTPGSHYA
T1 sequence (Q96D31 whole entry): as the sequence (Q96D31 whole entry, the tested form may be a part) above
T3 sequence (Q13586 342-448): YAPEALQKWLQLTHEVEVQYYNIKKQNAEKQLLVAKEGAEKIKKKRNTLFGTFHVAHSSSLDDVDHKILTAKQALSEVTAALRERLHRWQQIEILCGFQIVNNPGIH

interaction with CAD (b-gal, growth without histidine) (CAD [2])	co-immunoprecipitation with CAD (CAD [3])	Molecule	other results
		YFP-CT-STIM1: YFP-tagged CT-STIM1 (236-685) [reference compound]	constitutive ICRAC (Orai1 [1]; HEK 293 cells cotransfected with construct and myc-Orai1, from break-in): failed to activate constitutive ICRAC
		NCCOB(c1ccccc1)c1ccccc1 [2-APB, 2-Aminoethoxydiphenylborate, reference compound]	effect on CAD-induced sustained elevation of [Ca2+]i (CRAC channels; 100 μM 2-APB): blocked; effect on constitutive CAD-dependent ICRAC (Orai1 [1]; YFP-CAD+myc-Orai1 HEK 293 cell, 50 μM 2-APB, 20 mM Ca2+): increase in CAD-dependent current followed by a slower inhibition
interacted strongly	co-immunoprecipitated	Orai148-91: Orai1 N-terminal fragment aa 48-91, SEQ ID NO:3	co-immunoprecipitation with CAD (CAD [3]; listed as Orai1-NT(48-91)): co-immunoprecipitates
not		Orai148-70: Orai1 fragment aa 48-70 (SAVTYPDWIGQSYSEVMSLNEHS; UniProt Q96D31 48-70, looked up, fragment)	
weaker interaction	only very weakly	N-terminus of Orai1 (aa 1-91): Orai1 N-terminal fragment aa 1-91, SEQ ID NO:2	co-immunoprecipitation with CAD (CAD [3]; listed as N-terminus): interacts
		CAD (342-440): CAD peptide with the last 8 aa deleted	[Ca2+]i / CRAC channel activation (CRAC channels; HEK 293 cells coexpressing construct and Orai1, no store depletion): eliminates its ability to activate CRAC channels; co-immunoprecipitation with Orai1 (Orai1 [4]): retained the ability to bind to Orai1
		[Cl][La]([Cl])[Cl] [La^3+, LaCl3, reference compound]	effect on CAD-induced sustained elevation of [Ca2+]i (CRAC channels; 10 μM La3+): blocked; effect on CAD-supported current (Orai1 [1]; YFP-CAD+myc-Orai1 cell, 10 μM LaCl3, 20 mM Ca2+o): rapid inhibition of current
lack of interaction	not	II-III loop of Orai1: Orai1 II-III cytoplasmic loop aa 142-177, SEQ ID NO:5	
strong interaction	interacts	C-terminus of Orai1: Orai1 C-terminal fragment, SEQ ID NO:6 (HFYRSLVSHKTDRQFQELNELAEFARLQDQLDHRGDHPLTPGSHYA; H. sapiens)	
interacted strongly		Orai168-91: Orai1 fragment aa 68-91	
